Key:
Assay in all cases: alanine scan, flow cytometry;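 further: HEK293-T cells transiently expressing single-residue alanine mutants of CD33 (alanine swapped to serine), antibody binding read by fluorescence in duplicate, background-subtracted, expressed relative to wild-type CD33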
[1] = biological target: human CD33 V31A (human, UniProt P20138 18-364)
[2] = biological target: human CD33 T30A (human, UniProt P20138 18-364)
[3] = biological target: human CD33 E27A (human, UniProt P20138 18-364)
[4] = biological target: human CD33 F21A (human, UniProt P20138 18-364)
[5] = biological target: human CD33 G64A (human, UniProt P20138 18-364)
human CD33 G64A, sequence (P20138 18-364 G64A limits assumed): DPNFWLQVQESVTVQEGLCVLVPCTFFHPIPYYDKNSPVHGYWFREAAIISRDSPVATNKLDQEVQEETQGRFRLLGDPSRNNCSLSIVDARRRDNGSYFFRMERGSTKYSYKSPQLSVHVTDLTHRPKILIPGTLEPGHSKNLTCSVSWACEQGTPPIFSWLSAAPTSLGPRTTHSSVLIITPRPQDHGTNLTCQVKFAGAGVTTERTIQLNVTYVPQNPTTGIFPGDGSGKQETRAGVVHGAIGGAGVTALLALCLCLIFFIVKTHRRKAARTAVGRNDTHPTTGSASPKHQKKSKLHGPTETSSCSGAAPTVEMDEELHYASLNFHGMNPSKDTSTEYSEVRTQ

[6] = biological target: human CD33 R89A (human, UniProt P20138 18-364)
human CD33 R89A, sequence (P20138 18-364 R89A limits assumed): as the sequence (P20138 18-364 G64A limits assumed) above, with A47G, R72A counted along it

[7] = biological target: human CD33 P72A (human, UniProt P20138 18-364)
human CD33 P72A, sequence (P20138 18-364 P72A limits assumed): as the sequence (P20138 18-364 G64A limits assumed) above, with A47G, P55A counted along it

[8] = biological target: human CD33 K52A (human, UniProt P20138 18-364)
[9] = biological target: human CD33 P40A (human, UniProt P20138 18-364)
human CD33 P40A, sequence (P20138 18-364 P40A limits assumed): as the sequence (P20138 18-364 G64A limits assumed) above, with P23A, A47G counted along it

[10] = biological target: human CD33 Q32A (human, UniProt P20138 18-364)
human CD33 Q32A, sequence (P20138 18-364 Q32A limits assumed): as the sequence (P20138 18-364 G64A limits assumed) above, with Q15A, A47G counted along it

[11] = biological target: human CD33 E33A (human, UniProt P20138 18-364)
[12] = biological target: human CD33 T75A (human, UniProt P20138 18-364)
[13] = biological target: human CD33 E63A (human, UniProt P20138 18-364)
[14] = biological target: human CD33 L92A (human, UniProt P20138 18-364)
[15] = biological target: human CD33 P55A (human, UniProt P20138 18-364)
human CD33 P55A, sequence (P20138 18-364 P55A limits assumed): as the sequence (P20138 18-364 G64A limits assumed) above, with P38A, A47G counted along it

[16] = biological target: human CD33 F44A (human, UniProt P20138 18-364)
[17] = biological target: human CD33 Y59A (human, UniProt P20138 18-364)
human CD33 Y59A, sequence (P20138 18-364 Y59A limits assumed): as the sequence (P20138 18-364 G64A limits assumed) above, with Y42A, A47G counted along it

[18] = biological target: human CD33 G58A (human, UniProt P20138 18-364)
[19] = biological target: human CD33 V82A (human, UniProt P20138 18-364)
[20] = biological target: human CD33 P48A (human, UniProt P20138 18-364)
[21] = biological target: human CD33 V73A (human, UniProt P20138 18-364)
human CD33 V73A, sequence (P20138 18-364 V73A limits assumed): as the sequence (P20138 18-364 G64A limits assumed) above, with A47G, V56A counted along it

[22] = biological target: human CD33 R62A (human, UniProt P20138 18-364)
[23] = biological target: human CD33 Y50A (human, UniProt P20138 18-364)
human CD33 Y50A, sequence (P20138 18-364 Y50A limits assumed): as the sequence (P20138 18-364 G64A limits assumed) above, with Y33A, A47G counted along it

[24] = biological target: human CD33 A65S (human, UniProt P20138 18-364)
[25] = biological target: human CD33 S71A (human, UniProt P20138 18-364)
[26] = biological target: human CD33 Y49A (human, UniProt P20138 18-364)
[27] = biological target: human CD33 V56A (human, UniProt P20138 18-364)
[28] = biological target: human CD33 R91A (human, UniProt P20138 18-364)
[29] = biological target: human CD33 P46A (human, UniProt P20138 18-364)
[30] = biological target: human CD33 S54A (human, UniProt P20138 18-364)
[31] = biological target: human CD33 I66A (human, UniProt P20138 18-364)
[32] = biological target: human CD33 S28A (human, UniProt P20138 18-364)
human CD33 S28A, sequence (P20138 18-364 S28A limits assumed): as the sequence (P20138 18-364 G64A limits assumed) above, with S11A, A47G counted along it

[33] = biological target: human CD33 E85A (human, UniProt P20138 18-364)
[34] = biological target: human CD33 Q26A (human, UniProt P20138 18-364)
[35] = biological target: human CD33 F43A (human, UniProt P20138 18-364)
[36] = biological target: human CD33 G34A (human, UniProt P20138 18-364)
human CD33 G34A, sequence (P20138 18-364 G34A limits assumed): as the sequence (P20138 18-364 G64A limits assumed) above, with G17A, A47G counted along it

[37] = biological target: human CD33 R69A (human, UniProt P20138 18-364)
[38] = biological target: human CD33 C36A (human, UniProt P20138 18-364)
[39] = biological target: human CD33 I47A (human, UniProt P20138 18-364)
human CD33 I47A, sequence (P20138 18-364 I47A limits assumed): as the sequence (P20138 18-364 G64A limits assumed) above, with I30A, A47G counted along it

[40] = biological target: human CD33 D18A (human, UniProt P20138 19-364)
[41] = biological target: human CD33 Q80A (human, UniProt P20138 18-364)
[42] = biological target: human CD33 G88A (human, UniProt P20138 18-364)
human CD33 G88A, sequence (P20138 18-364 G88A limits assumed): as the sequence (P20138 18-364 G64A limits assumed) above, with A47G, G71A counted along it

human CD33 V31A, sequence (P20138 18-364 V31A limits assumed): as the sequence (P20138 18-364 G64A limits assumed) above, with V14A, A47G counted along it

B1: Refmab #1 (antibody, V domains shown)
VH: EVQLVQSGAEVKKPGSSVKVSCKASGYTITDSNIHWVRQAPGQSLEWIGYIYPYNGGTDYNQKFKNRATLTVDNPTNTAYMELSSLRSEDTAFYYCVNGNPWLAYWGQGTLVTVSS
VL: DIQLTQSPSTLSASVGDRVTITCRASESLDNYGIRFLTWFQQKPGKAPKLLMYAASNQGSGVPSRFSGSGSGTEFTLTISSLQPDDFATYYCQQTKEVPWSFGQGTKVEVK
notes: Full-length format is human IgG1 (Absolute Antibody Ab00283-10.0); The alanine scan used IgG or Fab; also called hP67.6
Mean % WT Binding [1]: 87 % WT | Mean % WT Binding [2]: 89.3 % WT | Mean % WT Binding [3]: 82.5 % WT | Mean % WT Binding [4]: 0.4 % WT | Mean % WT Binding [5]: 90.6 % WT | Mean % WT Binding [6]: 77.6 % WT | Mean % WT Binding [7]: 99.9 % WT | Mean % WT Binding [8]: 84.2 % WT | Mean % WT Binding [9]: 74.5 % WT | Mean % WT Binding [10]: 87 % WT | Mean % WT Binding [11]: 86.4 % WT | Mean % WT Binding [12]: 101 % WT | Mean % WT Binding [13]: 107 % WT | Mean % WT Binding [14]: 75.2 % WT | Mean % WT Binding [15]: 98.8 % WT | Mean % WT Binding [16]: 85.1 % WT | Mean % WT Binding [17]: 93.6 % WT | Mean % WT Binding [18]: 77.4 % WT | Mean % WT Binding [19]: 99.6 % WT | Mean % WT Binding [20]: 86.2 % WT | Mean % WT Binding [21]: 73.6 % WT | Mean % WT Binding [22]: 121 % WT | Mean % WT Binding [23]: 86 % WT | Mean % WT Binding [24]: 88.5 % WT | Mean % WT Binding [25]: 108 % WT | Mean % WT Binding [26]: 106 % WT | Mean % WT Binding [27]: 94.3 % WT | Mean % WT Binding [28]: 82 % WT | Mean % WT Binding [29]: 64.8 % WT | Mean % WT Binding [30]: 87.6 % WT | Mean % WT Binding [31]: 96.6 % WT | Mean % WT Binding [32]: 93.9 % WT | Mean % WT Binding [33]: 88.9 % WT | Mean % WT Binding [34]: 81.4 % WT | Mean % WT Binding [35]: 66.3 % WT | Mean % WT Binding [36]: 99.5 % WT | Mean % WT Binding [37]: 94.2 % WT | Mean % WT Binding [38]: 72.6 % WT | Mean % WT Binding [39]: 84.2 % WT | Mean % WT Binding [40]: 78.6 % WT | Mean % WT Binding [41]: 91.6 % WT | Mean % WT Binding [42]: 96.1 % WT

B2: Refmab #4 (antibody, V domains shown)
VH: QVQLVQSGAEVKKPGESVKVSCKASGYTFTNYGMNWVKQAPGQGLEWMGWINTYTGEPTYADKFQGRVTMTTDTSTSTAYMEIRNLGGDDTAVYYCARWSWSDGYYVYFDYWGQGTSVTVSS
VL: DIVMTQSPDSLTVSLGERTTINCKSSQSVLDSSTNKNSLAWYQQKPGQPPKLLLSWASTRESGIPDRFSGSGSGTDFTLTIDSPQPEDSATYYCQQSAHFPITFGQGTRLEIK
notes: Full-length format is human IgG1 Fc silent (PG-LALA); The alanine scan used IgG or Fab
Mean % WT Binding [1]: 97.9 % WT | Mean % WT Binding [2]: 104 % WT | Mean % WT Binding [3]: 42.9 % WT | Mean % WT Binding [4]: 43.6 % WT | Mean % WT Binding [5]: 93.9 % WT | Mean % WT Binding [6]: 71.6 % WT | Mean % WT Binding [7]: 94.6 % WT | Mean % WT Binding [8]: 9.8 % WT | Mean % WT Binding [9]: 43 % WT | Mean % WT Binding [10]: 83 % WT | Mean % WT Binding [11]: 87.1 % WT | Mean % WT Binding [12]: 93.8 % WT | Mean % WT Binding [13]: 84.1 % WT | Mean % WT Binding [14]: 85.2 % WT | Mean % WT Binding [15]: 95.4 % WT | Mean % WT Binding [16]: 152 % WT | Mean % WT Binding [17]: 97.6 % WT | Mean % WT Binding [18]: 62.2 % WT | Mean % WT Binding [19]: 144 % WT | Mean % WT Binding [20]: 8.4 % WT | Mean % WT Binding [21]: 67.2 % WT | Mean % WT Binding [22]: 104 % WT | Mean % WT Binding [23]: 3.5 % WT | Mean % WT Binding [24]: 84 % WT | Mean % WT Binding [25]: 99.4 % WT | Mean % WT Binding [26]: 3.1 % WT | Mean % WT Binding [27]: 56.8 % WT | Mean % WT Binding [28]: 100 % WT | Mean % WT Binding [29]: 135 % WT | Mean % WT Binding [30]: 99.9 % WT | Mean % WT Binding [31]: 108 % WT | Mean % WT Binding [32]: 79.9 % WT | Mean % WT Binding [33]: 110 % WT | Mean % WT Binding [34]: 63.1 % WT | Mean % WT Binding [35]: 7.8 % WT | Mean % WT Binding [36]: 93.4 % WT | Mean % WT Binding [37]: 118 % WT | Mean % WT Binding [38]: 108 % WT | Mean % WT Binding [39]: 144 % WT | Mean % WT Binding [40]: 110 % WT | Mean % WT Binding [41]: 124 % WT | Mean % WT Binding [42]: 97.7 % WT

— patent publication US20260242735A1 (UNIVERSIT T BASEL, published 2026)
